{
  "source": "patent US12233109B2",
  "about": "“Long-acting GLP-1r agonist as a therapy of neurological and neurodegenerative conditions” (The Johns Hopkins University, priority 2015, dated 2025)",
  "origin": "cited, not measured here",
  "details": "in vivo",
  "data": [
    {"substance": "Albiglutide: dipeptidyl peptidase-4-resistant glucagon-like peptide-1 dimer fused to human albumin", "values": [
      {"measurement": "half-life", "value": "four to seven"}
    ]}
  ]
}
